Measurements as given in PMC11574045 (2024).

Target: GLUP (macrocyclic version of glup) (disulfide-cyclization and C-terminal amidation (results); head-to-side-chain cross-linking with 1,3-dibromomethylbenzene (methods))

Kd: 4.55 µM
B1: TEAD4, purified recombinant protein (natural protein)
chain: PAPPWQGRSVASSKLWMLEFSAFLEQQQDPDTYNKHLFVHIGQSSPSYSDPYLEAVDIRQIYDKFPEKKGGLKDLFERGPSNAFFLVKFWADLNTNIEDEGSSFYGVSSQYESPENMIITCSTKVCSFGKQVVEKVETEYARYENGHYSYRIHRSPLCEYMINFIHKLKHLPEKYMMNSVLENFTILQVVTNRDTQETLLCIAYVFEVSASEHGAQHHIYRLVKE
